According to PMC10953559:
“And” between values parts separate entries of the source, which are not always exact repeats. Equal entries are not always repeated.

Biological target: GroEL14 as used with the substrate proteins NanA and DapA (E. coli) (UniProt P0A6F5)
Test: native MS; CE-MS; 6 µM GroEL14 with 6 or 12 µM substrate monomers, denatured in 6.5 M GuHCl and 9 mM DTT and diluted 30-fold into GroEL14 buffer pH 7.5 (200 mM GuHCl, 0.3 mM DTT left); no ATP, no GroES; BGE 50 mM ammonium acetate pH 6.7

share of the total signal intensity, GroEL14-DapA2 complex: 80%
stoichiometry N (DapA monomers per GroEL14): 1 and 2
B1: dihydrodipicolinate synthase, denatured monomer (DapA) (enzyme)
chain: MFTGSIVAIVTPMDEKGNVCRASLKKLIDYHVASGTSAIVSVGTTGESATLNHDEHADVVMMTLDLADGRIPVIAGTGANATAEAISLTQRFNDSGIVGCLTVTPYYNRPSQEGLYQHFKAIAEHTDLPQILYNVPSRTGCDLLPETVGRLAKVKNIIGIKEATGNLTRVNQIKELVSDDFVLLSGDDASALDFMQLGGHGVISVTANVAARDMAQMCKLAAEGHFAEARVINQRLMPLHNKLFVEPNPIPVKWACKELGLVATDTLRLPMTPITDSGRETVRAALKHAGLL
